Measurements from the Immune Epitope Database (IEDB).

Tests used:
HLA-B*27:05 [1] = assay: IEDB peptide-MHC binding, purified MHC/competitive/fluorescence; ≥ and ≤ were set here for values at or beyond the usual limits of such assays
HLA-A*24:02 = assay: IEDB peptide-MHC binding, purified MHC/competitive/fluorescence; filed as Kd, often an IC50 or EC50 that approximates it; ≥ and ≤ were set here for values at or beyond the usual limits of such assays
HLA-A*01:01 = assay: IEDB peptide-MHC binding, purified MHC/direct/fluorescence; filed as Kd, often an IC50 or EC50 that approximates it; ≥ and ≤ were set here for values at or beyond the usual limits of such assays
HLA-A*02:01 = assay: as above
HLA-A*03:01 [2] = assay: as above
HLA-A*11:01 = assay: as above
HLA-A*26:01 = assay: as above
HLA-A*31:01 [3] = assay: as above
HLA-A*69:01 = assay: as above
HLA-B*07:02 = assay: as above
HLA-B*08:01 = assay: as above
HLA-B*15:01 [4] = assay: as above
HLA-B*27:05 [5] = assay: as above
HLA-B*40:01 [6] = assay: as above
HLA-B*44:02 = assay: as above
HLA-B*58:01 = assay: as above
HLA-B*73:01 [7] = assay: as above
HLA-B*08:02 = assay: as above; details: source organism: Campylobacter jejuni subsp. jejuni 81116
HLA-C*06:02 [8] = assay: as above
HLA-A*32:07 = assay: IEDB peptide-MHC binding, purified MHC/competitive/fluorescence; filed as Kd, often an IC50 or EC50 that approximates it; ≥ and ≤ were set here for values at or beyond the usual limits of such assays; details: source organism: Campylobacter jejuni subsp. jejuni NCTC 11168 = ATCC 700819
HLA-B*15:42 = assay: as above
HLA-B*40:13 = assay: as above
HLA-B*45:06 = assay: as above
HLA-B*46:01 [9] = assay: as above; details: source organism: Campylobacter jejuni subsp. jejuni NCTC 11168 = ATCC 700819
HLA-B*83:01 = assay: as above
HLA-B*48:01 = assay: IEDB peptide-MHC binding, purified MHC/direct/fluorescence; filed as Kd, often an IC50 or EC50 that approximates it; ≥ and ≤ were set here for values at or beyond the usual limits of such assays; details: source organism: Toxoplasma gondii
HLA-C*07:02 = assay: as above; details: source organism: Mus musculus
HLA-B*27:20 = assay: IEDB peptide-MHC binding, purified MHC/competitive/fluorescence; filed as Kd, often an IC50 or EC50 that approximates it; ≥ and ≤ were set here for values at or beyond the usual limits of such assays
HLA-B*73:01 [10] = assay: as above; details: source organism: Mus musculus
HLA-C*06:02 [11] = assay: as above; details: source organism: Mus musculus
HLA-A*68:23 = assay: as above
HLA-B*40:01 [12] = assay: as above; details: source organism: Escherichia coli 536
HLA-B*15:02 = assay: IEDB peptide-MHC binding, purified MHC/direct/fluorescence; filed as Kd, often an IC50 or EC50 that approximates it; ≥ and ≤ were set here for values at or beyond the usual limits of such assays
HLA-B*35:01 = assay: as above; details: source organism: Yersinia pestis
HLA-B*46:01 [13] = assay: as above; details: source organism: Yersinia pestis
HLA-A*03:01 [14] = assay: IEDB peptide-MHC binding, purified MHC/competitive/fluorescence; filed as Kd, often an IC50 or EC50 that approximates it; ≥ and ≤ were set here for values at or beyond the usual limits of such assays; details: source organism: Escherichia coli
HLA-A*31:01 [15] = assay: as above; details: source organism: Escherichia coli
HLA-B*15:01 [16] = assay: as above; details: source organism: Escherichia coli
HLA-C*04:01 = assay: IEDB peptide-MHC binding, purified MHC/direct/fluorescence; filed as Kd, often an IC50 or EC50 that approximates it; ≥ and ≤ were set here for values at or beyond the usual limits of such assays
[17] = source organism: Brucella abortus 2308
[18] = source organism: Brucella melitensis
[19] = source organism: Campylobacter jejuni subsp. jejuni NCTC 11168 = ATCC 700819
[20] = source organism: Toxoplasma gondii
[21] = source organism: Escherichia coli 536
[22] = source organism: Mycobacterium tuberculosis variant bovis BCG str. Pasteur 1173P2
[23] = source organism: Yersinia pestis
[24] = source organism: Influenza A virus (A/turkey/Ohio/313053/2004(H3N2))

With GGAAICGKY the IC50 (HLA-B*27:05 [1]; source organism: Hepacivirus hominis) was ≥ 750000 nM.

Sequence MYSDFHFI has a Kd (HLA-A*24:02; source organism: Influenza A virus (A/X-31(H3N2))) of 146 nM.

For KRASGDPYF, the Kd (HLA-A*01:01; [17]) was ≥ 20000 nM, the Kd (HLA-A*02:01; [17]) was ≥ 20000 nM and the Kd (HLA-A*03:01 [2]; [17]) was ≥ 20000 nM. The Kd (HLA-A*11:01; [17]) was ≥ 20000 nM, the Kd (HLA-A*26:01; [17]) was ≥ 20000 nM and the Kd (HLA-A*31:01 [3]; [17]) was ≥ 20000 nM. For the same sequence, the Kd (HLA-A*69:01; [17]) was ≥ 20000 nM, the Kd (HLA-B*07:02; [17]) was ≥ 20000 nM and the Kd (HLA-B*08:01; [17]) was ≥ 20000 nM. The Kd (HLA-B*15:01 [4]; [17]) was ≥ 20000 nM, the Kd (HLA-B*27:05 [5]; [18]) was 2790 nM and the Kd (HLA-B*40:01 [6]; [17]) was ≥ 20000 nM. The Kd (HLA-B*44:02; [17]) was ≥ 20000 nM, the Kd (HLA-B*58:01; [18]) was 5930 nM and the Kd (HLA-B*73:01 [7]; source organism: Brucella suis ATCC 23445) was ≥ 20000 nM.

For YMKKRYEEF, the Kd (HLA-B*08:02) was 127 nM, the Kd (HLA-C*06:02 [8]; [19]) was ≥ 20000 nM and the Kd (HLA-A*32:07) was 232 nM. For the same sequence, the Kd (HLA-B*15:42; [19]) was ≥ 5000 nM, the Kd (HLA-B*40:13; [19]) was 326 nM and the Kd (HLA-B*45:06; [19]) was ≥ 5000 nM. The Kd (HLA-B*46:01 [9]) was 188 nM and the Kd (HLA-B*83:01; [19]) was ≥ 5000 nM.

With WRMVVRASF the Kd (HLA-B*27:05 [5]; [20]) was 8 nM, the Kd (HLA-B*48:01) was ≥ 20000 nM and the Kd (HLA-B*73:01 [7]; [20]) was 1340 nM.

RRFFPYYV was tested, and the IC50 (HLA-B*27:05 [1]; source organism: Homo sapiens) was 3200 nM.

For FRMLAWHVL, the Kd (HLA-C*07:02) was 30 nM, the Kd (HLA-B*15:42; source organism: Mus musculus) was ≥ 5000 nM and the Kd (HLA-B*27:20; source organism: Mus musculus) was 0.2 nM. For the same sequence, the Kd (HLA-B*45:06; source organism: Mus musculus) was ≥ 5000 nM, the Kd (HLA-B*73:01 [10]) was 689 nM and the Kd (HLA-C*06:02 [11]) was 3.8 nM.

In the case of KEMGFSPRL, the Kd (HLA-A*68:23; [21]) is reported as 121 nM, the Kd (HLA-B*15:42; [21]) is reported as ≥ 5000 nM and the Kd (HLA-B*27:20; [21]) is reported as 176 nM. For the same sequence, the Kd (HLA-B*40:01 [12]) was 10.3 nM, the Kd (HLA-B*40:13; [21]) was 33.6 nM and the Kd (HLA-B*45:06; [21]) was ≥ 5000 nM. The Kd (HLA-B*83:01; [21]) was ≥ 5000 nM.

TTFDLTLRR was tested, and the Kd (HLA-A*68:23; [22]) was 12.1 nM, the Kd (HLA-B*15:42; [22]) was ≥ 5000 nM and the Kd (HLA-B*45:06; [22]) was ≥ 5000 nM. The Kd (HLA-B*83:01; [22]) was ≥ 5000 nM.

For MQLQLNCAY, the Kd (HLA-A*01:01; [23]) was 2770 nM, the Kd (HLA-A*02:01; [23]) was ≥ 20000 nM and the Kd (HLA-A*03:01 [2]; [23]) was ≥ 20000 nM. For the same sequence, the Kd (HLA-A*11:01; [23]) was ≥ 20000 nM, the Kd (HLA-A*26:01; [23]) was ≥ 20000 nM and the Kd (HLA-A*31:01 [3]; [23]) was 6350 nM. The Kd (HLA-A*69:01; [23]) was 1330 nM, the Kd (HLA-B*07:02; [23]) was ≥ 10000 nM and the Kd (HLA-B*08:01; [23]) was ≥ 20000 nM. The Kd (HLA-B*15:01 [4]; [23]) was 112 nM, the Kd (HLA-B*15:02; source organism: Yersinia pestis CA88-4125) was 15 nM and the Kd (HLA-B*27:05 [5]; [23]) was ≥ 20000 nM. The Kd (HLA-B*35:01) was 33.7 nM, the Kd (HLA-B*40:01 [6]; [23]) was 705 nM and the Kd (HLA-B*44:02; [23]) was ≥ 20000 nM. The Kd (HLA-B*46:01 [13]) was ≥ 20000 nM.

RYWRLRYRI was tested, and the Kd (HLA-C*06:02 [8]; source organism: Escherichia coli) was ≥ 20000 nM, the Kd (HLA-A*03:01 [14]) was ≥ 20000 nM and the Kd (HLA-A*31:01 [15]) was 2.1 nM. The Kd (HLA-B*15:01 [16]) was ≥ 20000 nM.

In the case of RQLESRLGY, the Kd (HLA-A*02:01; [23]) is reported as ≥ 20000 nM, the Kd (HLA-A*03:01 [2]; [23]) is reported as 61.6 nM and the Kd (HLA-A*11:01; [23]) is reported as 130 nM. For the same sequence, the Kd (HLA-A*26:01; [23]) was ≥ 20000 nM, the Kd (HLA-A*31:01 [3]; [23]) was 288 nM and the Kd (HLA-A*69:01; [23]) was ≥ 20000 nM. The Kd (HLA-B*07:02; [23]) was ≥ 20000 nM, the Kd (HLA-B*08:01; [23]) was ≥ 20000 nM and the Kd (HLA-B*15:01 [4]; [23]) was 146 nM. The Kd (HLA-B*15:02; source organism: Yersinia enterocolitica subsp. enterocolitica 8081) was 77 nM, the Kd (HLA-B*27:05 [5]; [23]) was 65.6 nM and the Kd (HLA-B*40:01 [6]; [23]) was 3740 nM. The Kd (HLA-B*46:01 [13]) was ≥ 20000 nM and the Kd (HLA-B*58:01; [23]) was ≥ 20000 nM.

TRDPNLAYI was tested, and the Kd (HLA-C*04:01; source organism: Leishmania major strain Friedlin) was ≥ 20000 nM.

With RYSGFVRTL the Kd (HLA-C*04:01; [24]) was ≥ 20000 nM and the Kd (HLA-A*24:02; [24]) was 1.1 nM.
